# Assay: soluble on expression in E. coli; label from the status in PepcDB or PDB records
row,Sequence,soluble on expression in E. coli
1,MSKISQQNSTPGVNGISVIHTQAHASGLQQVPQLVPAGPGGGGKAVAPSKQSKKSSPMDRNSDEYRQRRERNNMAVKKSRLKSKQKAQDTLQRVNQLKEENERLEAKIKLLTKELSVLKDLFLEHAHNLADNVQSISTENTTADGDNAGQ,soluble
2,MSKLAEFREAERKLQEQLALLEKLKSDSSLKQELEFKDKLQALMDKYGMTLHNIIAILDPKAPVTVSAAPQRRARALKVYKNPNNGEVVETKGGNHKVLKAWKEQYGSETVESWLQR,not soluble
3,MSKPYLAGLLLISPWALAASGSWSSESFGGTMTRGQQSVKSKPLQSPSPLPPGARATTVHWKIKTDGLTPSGLRIRLCNAARCVRLAGWAGEMPLPAGIAPEGPFRFEYHASEAGTLRSPVTILSNQLTVSYHSSH,not soluble
4,MSKQQPTQFINPETPGYVGFANLPNQVHRKSVKKGFEFTLMVVGESGLGKSTLINSLFLTDLYPERVIPGAAEKIERTVQIEASTVEIEERGVKLRLTVVDTPGYGDAINCRDCFKTIISYIDEQFERYLHDESGLNRRHIIDNRVHCCFYFISPFGHGLKPLDVAFMKAIHNKVNIVPVIAKADTLTLKERERLKKRILDEIEEHNIKIYHLPDAESDEDEDFKEQTRLLKASIPFSVVGSNQLIEAKGKKVRGRLYPWGVVEVENPEHNDFLKLRTMLITHMQDLQEVTQDLHYENFRSERLKRGGRKVENEDMNKDQILLEKEAELRRMQEMIARMQAQMQMQMQGGDGDGGALGHHV,soluble
5,MSKRRYLTGKEVQAMMQAVCYGATGARDYCLILLAYRHGMRISELLDLHYQDLDLNEGRINIRRLKNGFSTVHPLRFDEREAVERWTQERANWKGADRTDAIFISRRGSRLSRQQAYRIIRDAGIEAGTVTQTHPHMLRHACGYELAERGADTRLIQDYLGHRNIRHTVRYTASNAARFAGLWERNNLINEKLKREEV,not soluble
6,MSKSIYEQYLQAKADNPGKYARDLATLMGISEAELTHSRVSHDAKRLKGDARALLAALEAVGEVKAITRNTYAVHEQMGRYENQHLNGHAGLILNPRNLDLRLFLNQWASAFTLTEETRHGVRHSIQFFDHQGDALHKVYVTEQTDMPAWEALLAQFITTENPELQLEPLSAPEVTEPTATDEAVDAEWRAMTDVHQFFQLLKRNNLTRQQAFRAVGNDLAYQVDNSSLTQLLNIAQQEQNEIMIFVGNRGCVQIFTGMIEKVTPHQDWINVFNQRFTLHLIETTIAESWITRKPTKDGFVTSLELFAADGTQIAQLYGQRTEGQPEQTQWRDQIARLNNKDIAA,soluble
7,MSKSTAEIRQAFLDFFHSKGHQVVASSSLVPHNDPTLLFTNAGMNQFKDVFLGLDKRNYSRATTSQRCVRAGGKHNDLENVGYTARHHTFFEMLGNFSFGDYFKHDAIQFAWELLTSEKWFALPKERLWVTVYESDDEAYEIWEKEVGIPRERIIRIGDNKGAPYASDNFWQMGDTGPCGPCTEIFYDHGDHIWGGPPGSPEEDGDRYIEIWNIVFMQFNRQADGTMEPLPKPSVDTGMGLERIAAVLQHVNSNYDIDLFRTLIQAVAKVTGATDLSNKSLRVIADHIRSCAFLIADGVMPSNENRGYVLRRIIRRAVRHGNMLGAKETFFYKLVGPLIDVMGSAGEDLKRQQAQVEQVLKTEEEQFARTLERGLALLDEELAKLSGDTLDGETAFRLYDTYGFPVDLTADVCRERNIKVDEAGFEAAMEEQRRRAREASGFGADYNAMIRVDSASEFKGYDHLELNGKVTALFVDGKAVDAINAGQEAVVVLDQTPFYAESGGQVGDKGELKGANFSFAVEDTQKYGQAIGHIGKLAAGSLKVGDAVQADVDEARRARIRLNHSATHLMHAALRQVLGTHVSQKGSLVNDKVLRFDFSHNEAMKPEEIRAVEDLVNTQIRRNLPIETNIMDLEAAKAKGAMALFGEKYDERVRVLSMGDFSTELCGGTHASRTGDIGLFRIISESGTAAGVRRIEAVTGEGAIATVHADSDRLSEVAHLLKGDSNNLADKVRSVLERTRQLEKELQQLKEQAAAQESANLSSKAIDVNGVKLLVSELSGVEPKMLRTMVDDLKNQLGSTIIVLATVVEGKVSLIAGVSKDVTDRVKAGELIGMVAQQVGGKGGGRPDMAQAGGTDAAALPAALASVKGWVSAKLQ,soluble
8,MSKVNQQDIDKLIELVGGRGNIATVSHCITRLRFVLNDPAIARPKEIEQLRMVKGCFTNAGQFQVVIGTEVGDYYKALLATTGQTSADKEQVKQA,not soluble

# Reference: the DeepSol protein solubility set
